Assay results: patent US20250270319A1 (Alector, published 2025)
Residue numbers refer to the chain shown, from its start.

Tests used:
[1] = molecular target: T1, recombinant human CD33 protein (Sino Biologicals) (human, UniProt P20138 18-259); experiment: ELISA, plate coated with recombinant CD33
T1 construct: Bought protein; also called recombinant CD33

[2] = molecular target: T2, recombinant cynomolgus CD33 protein (NovoProtein) (cynomolgus); experiment: ELISA, plate coated with recombinant CD33
T2 construct: Bought protein; also called cyno CD33

[3] = molecular target: human CD33 on primary human dendritic cells (human, UniProt P20138 18-364); experiment: cell-based or functional assay
human CD33 on primary human dendritic cells, sequence (P20138 18-364): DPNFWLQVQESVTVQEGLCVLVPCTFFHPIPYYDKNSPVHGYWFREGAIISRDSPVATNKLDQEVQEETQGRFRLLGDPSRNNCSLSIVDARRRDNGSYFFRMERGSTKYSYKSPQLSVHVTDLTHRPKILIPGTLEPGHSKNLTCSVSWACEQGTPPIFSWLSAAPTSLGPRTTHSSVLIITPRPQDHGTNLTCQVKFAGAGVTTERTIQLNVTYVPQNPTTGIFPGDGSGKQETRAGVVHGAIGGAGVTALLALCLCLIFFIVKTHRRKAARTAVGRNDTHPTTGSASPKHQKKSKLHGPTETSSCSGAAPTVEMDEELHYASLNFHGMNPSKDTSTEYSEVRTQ

T1 sequence (P20138 18-259 limits assumed): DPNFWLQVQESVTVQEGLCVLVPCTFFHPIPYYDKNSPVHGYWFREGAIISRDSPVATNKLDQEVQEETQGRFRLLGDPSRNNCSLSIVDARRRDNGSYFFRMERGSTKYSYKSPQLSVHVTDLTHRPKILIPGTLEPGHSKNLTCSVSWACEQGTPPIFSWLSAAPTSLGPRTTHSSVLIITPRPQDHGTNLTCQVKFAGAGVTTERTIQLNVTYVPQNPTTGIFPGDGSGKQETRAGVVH
T2 sequence (chain, as listed by the source limits assumed): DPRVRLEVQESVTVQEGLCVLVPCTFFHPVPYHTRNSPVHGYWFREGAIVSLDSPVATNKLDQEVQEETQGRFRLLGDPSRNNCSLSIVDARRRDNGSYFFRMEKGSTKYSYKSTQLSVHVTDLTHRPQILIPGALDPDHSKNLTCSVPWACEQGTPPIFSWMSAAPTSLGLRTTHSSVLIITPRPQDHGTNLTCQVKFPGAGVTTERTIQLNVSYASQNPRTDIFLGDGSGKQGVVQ

B1: anti-CD33 antibody 6C7H36 (antibody, V domains shown)
VH: EVQLVESGGGLVQPGGSLRLSCAASGFTFSEYAMLWVRQAPGKGLEWVGEIRLKSNNYVTNYAASVKGRFTISRDDSKNSVYLQMNSLKTEDTGVYYCTRAGYYVPFTYWGQGTLVTVSS
VL: QLMLTQSPSASASLGASVKLTCTLSSQHSTYTIEWYQQQPGKGPRYLMELKKEGSHSTGDGIPDRFSGSSSGAERYLTISSLQSEDEADYYCGVGHTIKEQFVYEFGGGTKLTVL
notes: VH/VL only
EC50 [1]: 0.13 nM | EC50 [2]: 4 nM | Relative maximal binding (cyno/human) [2]: 0.34 | Relative potency (human/cyno) [2]: 0.03 | Fold increase in potency compared to 6C7H5 [3]: 0.9 fold | Receptor downregulation, (EC50) (pM) [3]: 49.1 pM

B2: anti-CD33 antibody 6C7H44 (antibody, V domains shown)
VH: B1 VH with A33D, T108A
VL: B1 VL with L2P, H96L, E105V
notes: VH/VL only
EC50 [1]: 0.18 nM | Relative maximal binding (cyno/human) [2]: 0.09 | Fold increase in potency compared to 6C7H5 [3]: 0.9 fold | Receptor downregulation, (EC50) (pM) [3]: 45.7 pM

B3: anti-CD33 antibody 6C7H37 (antibody, V domains shown)
VH: B1 VH
VL: B1 VL with E105V
notes: VH/VL only
EC50 [1]: 0.26 nM | EC50 [2]: 5.62 nM | Relative maximal binding (cyno/human) [2]: 0.45 | Relative potency (human/cyno) [2]: 0.05 | Fold increase in potency compared to 6C7H5 [3]: 0.7 fold | Receptor downregulation, (EC50) (pM) [3]: 59.3 pM

B4: anti-CD33 antibody 6C7H48 (antibody, V domains shown)
VH: B1 VH with A24G, E31N, A33E, L35N, G49A, T108A
VL: B1 VL with L2P, H96L, E105V
notes: VH/VL only
EC50 [1]: 0.17 nM | EC50 [2]: 1.19 nM | Relative maximal binding (cyno/human) [2]: 0.53 | Relative potency (human/cyno) [2]: 0.14 | Fold increase in potency compared to 6C7H5 [3]: 0.8 fold | Receptor downregulation, (EC50) (pM) [3]: 56.3 pM

B5: anti-CD33 antibody 6C7H46 (antibody, V domains shown)
VH: B1 VH with T108A
VL: B1 VL with L2P, H96L, E105V
notes: VH/VL only
EC50 [1]: 0.19 nM | EC50 [2]: 16.8 nM | Relative maximal binding (cyno/human) [2]: 0.23 | Relative potency (human/cyno) [2]: 0.01 | Fold increase in potency compared to 6C7H5 [3]: 0.7 fold | Receptor downregulation, (EC50) (pM) [3]: 61.7 pM

B6: anti-CD33 antibody 6C7H50 (antibody, V domains shown)
VH: B1 VH with A33D, T108A
VL: B1 VL with E105V
notes: VH/VL only
EC50 [1]: 0.22 nM | Relative maximal binding (cyno/human) [2]: 0.21 | Fold increase in potency compared to 6C7H5 [3]: 0.7 fold | Receptor downregulation, (EC50) (pM) [3]: 57.8 pM

B7: anti-CD33 antibody 6C7H52 (antibody, V domains shown)
VH: B1 VH with T108A
VL: B1 VL with E105V
notes: VH/VL only
EC50 [1]: 0.23 nM | EC50 [2]: 1.7 nM | Relative maximal binding (cyno/human) [2]: 0.47 | Relative potency (human/cyno) [2]: 0.14 | Fold increase in potency compared to 6C7H5 [3]: 0.9 fold | Receptor downregulation, (EC50) (pM) [3]: 47.7 pM

B8: anti-CD33 antibody 6C7H41 (antibody, V domains shown)
VH: B1 VH with A33D, S77T, T108A
VL: B1 VL with E105V
notes: VH/VL only
EC50 [1]: 0.23 nM | Fold increase in potency compared to 6C7H5 [3]: 1.2 fold | Receptor downregulation, (EC50) (pM) [3]: 34.2 pM

B9: anti-CD33 antibody 6C7H51 (antibody, V domains shown)
VH: B1 VH with T108A
VL: B1 VL with L2P, M3V, G41E, H96V, E105V
notes: VH/VL only
EC50 [1]: 0.19 nM | Relative maximal binding (cyno/human) [2]: 0.08 | Fold increase in potency compared to 6C7H5 [3]: 1 fold | Receptor downregulation, (EC50) (pM) [3]: 42.4 pM

B10: anti-CD33 antibody 6C7H39 (antibody, V domains shown)
VH: B1 VH with A33D, S77T, T108A
VL: B1 VL with L2P, M3V, G41E, H96V, E105V
notes: VH/VL only
EC50 [1]: 0.23 nM | Fold increase in potency compared to 6C7H5 [3]: 1.1 fold | Receptor downregulation, (EC50) (pM) [3]: 38.7 pM

B11: anti-CD33 antibody 6C7H49 (antibody, V domains shown)
VH: B1 VH with A33D, T108A
VL: B1 VL with L2P, M3V, G41E, H96V, E105V
notes: VH/VL only
EC50 [1]: 0.3 nM | Fold increase in potency compared to 6C7H5 [3]: 0.6 fold | Receptor downregulation, (EC50) (pM) [3]: 69.7 pM

B12: anti-CD33 antibody 6C7H45 (antibody, V domains shown)
VH: B1 VH with T108A
VL: B1 VL
notes: VH/VL only
EC50 [1]: 0.15 nM | Relative maximal binding (cyno/human) [2]: 0.31 | Fold increase in potency compared to 6C7H5 [3]: 1 fold | Receptor downregulation, (EC50) (pM) [3]: 44.5 pM

B13: anti-CD33 antibody 6C7H38 (antibody, V domains shown)
VH: B1 VH
VL: B1 VL with L2P, H96L, E105V
notes: VH/VL only
EC50 [1]: 0.21 nM | EC50 [2]: 4.87 nM | Relative maximal binding (cyno/human) [2]: 0.36 | Relative potency (human/cyno) [2]: 0.04 | Fold increase in potency compared to 6C7H5 [3]: 1.6 fold | Receptor downregulation, (EC50) (pM) [3]: 27 pM

B14: anti-CD33 antibody 6C7H47 (antibody, V domains shown)
VH: B1 VH with A24G, E31N, A33E, L35N, G49A, T108A
VL: B1 VL
notes: VH/VL only
EC50 [1]: 0.22 nM | EC50 [2]: 0.42 nM | Relative maximal binding (cyno/human) [2]: 0.43 | Relative potency (human/cyno) [2]: 0.52 | Fold increase in potency compared to 6C7H5 [3]: 0.7 fold | Receptor downregulation, (EC50) (pM) [3]: 59 pM

B15: anti-CD33 antibody 6C7H42 (antibody, V domains shown)
VH: B1 VH with A33D, S77T, T108A
VL: B1 VL with L2P, H96L, E105V
notes: VH/VL only
EC50 [1]: 0.2 nM | Relative maximal binding (cyno/human) [2]: 0.08 | Fold increase in potency compared to 6C7H5 [3]: 1.1 fold | Receptor downregulation, (EC50) (pM) [3]: 39.4 pM

B16: anti-CD33 antibody 6C7H40 (antibody, V domains shown)
VH: B1 VH with A33D, S77T, T108A
VL: B1 VL
notes: VH/VL only
EC50 [1]: 0.19 nM | Fold increase in potency compared to 6C7H5 [3]: 1.1 fold | Receptor downregulation, (EC50) (pM) [3]: 37.2 pM

B17: anti-CD33 antibody 6C7H43 (antibody, V domains shown)
VH: B1 VH with A33D, T108A
VL: B1 VL
notes: VH/VL only
EC50 [1]: 0.17 nM | Relative maximal binding (cyno/human) [2]: 0.11 | Fold increase in potency compared to 6C7H5 [3]: 0.9 fold | Receptor downregulation, (EC50) (pM) [3]: 49.8 pM
